Laboratory results: publication PMC6081480, “Monitoring the action of redox-directed cancer therapeutics using a human peroxiredoxin-2-based probe” (Nature Communications, 2018)
Blank lines part the entries; values can stand above or below the molecule they belong to.

Tests used:
[1] = molecular target: human Prx2-based FRET probe (Clover-Prx2-mRuby2) (human); test: non-reducing SDS-PAGE with immunoblot; HeLa cells with or without the probe, treated with H2O2 (also auranofin or piperlongumine); free thiols blocked with 100 mM MMTS; 1% Triton X-100 lysate; SDS-PAGE without beta-mercaptoethanol; blot for Prx2 or GFP; disulfide-linked dimers
[2] = molecular target: the molecule itself; test: as above

stoichiometry N [1]: 2
Molecule: human Prx2-based FRET probe (Clover-Prx2-mRuby2)

B1: human peroxiredoxin-2 (endogenous) (natural protein, human (endogenous in HeLa), UniProt P32119 1-198, looked up)
chain: MASGNARIGKPAPDFKATAVVDGAFKEVKLSDYKGKYVVLFFYPLDFTFVCPTEIIAFSNRAEDFRKLGCEVLGVSVDSQFTHLAWINTPRKEGGLGPLNIPLLADVTRRLSEDYGVLKTDEGIAYRGLFIIDGKGVLRQITVNDLPVGRSVDEALRLVQAFQYTDEHGEVCPAGWKPGSDTIKPNVDDSKEYFSKHN
notes: peroxiredoxin-2 (Prx2), human, endogenous in HeLa cells; monomer band at 21 kDa; the dimer seen on non-reducing SDS-PAGE is linked by a disulfide between the catalytic and the resolving cysteine of two monomers; also called Prx2; endogenous Prx2; source: endogenous, HeLa lysate
stoichiometry N [2]: 2
